{"source": "paper PMC4336573", "about": "(2015)", "binders": {"B1": {"name": "CBX7 chromodomain (protein)", "chain": "FAVESIRKKRVRKGKVEYLVKWKGWPPKYSTWEPEEHILDPRLVMAYEEKEERDRASGY"}}, "molecular_target": "T1, Histone H3 K27me3 peptide H3K27me3 peptide (Homo sapiens, UniProt P68431, K27 trimethylation (H3))", "T1 chain": "QLATKAARKSAPATGGV", "test": "fluorescence anisotropy"}
{"binder": "B1", "values": [{"measurement": "Kd", "result": 27.7, "unit": "µM"}]}
